Data taken from patent publication US20230340119A1 (ARBELE, published 2023).
Several values for one entry are separate records, joined by “and”; a condition that tells them apart may be missing. Equal entries are not always repeated.

T1: Fibroblast activation protein alpha (FAP) on DLD1-FAP cells (UniProt Q12884 1-760, limits assumed)
T1 sequence (looked up): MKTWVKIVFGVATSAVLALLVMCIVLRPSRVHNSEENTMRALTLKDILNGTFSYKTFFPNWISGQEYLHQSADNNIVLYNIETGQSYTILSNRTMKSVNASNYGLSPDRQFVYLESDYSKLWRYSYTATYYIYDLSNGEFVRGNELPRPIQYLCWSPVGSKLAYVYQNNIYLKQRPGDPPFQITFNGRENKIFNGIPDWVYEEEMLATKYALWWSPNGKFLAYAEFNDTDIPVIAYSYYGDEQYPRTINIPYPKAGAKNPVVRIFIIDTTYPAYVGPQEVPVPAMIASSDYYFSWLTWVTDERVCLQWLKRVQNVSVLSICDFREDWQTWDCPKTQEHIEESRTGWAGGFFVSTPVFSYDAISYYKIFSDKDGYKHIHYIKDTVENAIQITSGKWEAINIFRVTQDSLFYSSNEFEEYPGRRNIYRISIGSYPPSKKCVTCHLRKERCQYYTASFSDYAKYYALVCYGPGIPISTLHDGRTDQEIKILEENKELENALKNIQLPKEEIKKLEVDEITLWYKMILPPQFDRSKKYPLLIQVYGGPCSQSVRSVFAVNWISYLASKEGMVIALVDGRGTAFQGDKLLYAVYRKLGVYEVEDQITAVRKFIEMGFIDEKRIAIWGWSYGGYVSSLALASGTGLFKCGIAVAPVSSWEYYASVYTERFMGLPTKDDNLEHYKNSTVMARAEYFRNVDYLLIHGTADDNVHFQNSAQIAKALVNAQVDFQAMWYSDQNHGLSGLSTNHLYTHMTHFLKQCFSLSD


Columns and labels:
CD3 on T cells [1] = biological target: T2, CD3 on T cells (UniProt P07766 23-207); test: flow cytofluorimetry on peripheral blood T cells, fit of Median FI against concentration; one of three independent determinations
T2 construct: whole, on cells; also called cellular CD3; CD3 on peripheral blood T cells
Procedure: (§1) The antibody binding to peripheral blood T cells was determined for T cell affinity over a range of concentration as shown in FIG. 8A. MFI were plotted and affinity (EC50) was determined using GraphPad PRISM. Three independent affinity determinations and their averages were indicated. […] Both h10Ta antibodies engaged CDH17 (on DLD1) and CD3. The signaling was determined according to manufacturer's protocol, at 24 hours using an antibody concentration range as indicated and Jurkat reporter cells at 100×10³ and DLD1 cells at 30×10³ per microtiter well (96-well plate). Luciferase expression/activity was measured using a multimode plate reader. […] Controls included no antibody or a CD3, CD28, CD2 agonist (Immunocult; StemCell) to induce maximal stimulation.

CD3 on T cells [2] = biological target: T2, CD3 on T cells; test: flow cytofluorimetry on peripheral blood T cells, EC50 from MFI, average of three determinations; h10Ta-wt, parental Fv Vk CDR1
Procedure: as §1

CD3 on T cells [3] = biological target: T2, CD3 on T cells; test: cell-based or functional assay
CD3 on T cells [4] = biological target: T2, CD3 on T cells; test: cell-based or functional assay; remark: listed apart in the source
[5] = biological target: T1, Fibroblast activation protein alpha …; test: cell-based or functional assay
CD3 on T cells [6] = biological target: T2, CD3 on T cells; test: flow cytofluorimetry on peripheral blood T cells, EC50 from MFI, average of three determinations; h10Ta-L4, modified CDRL1
Procedure: as §1

CD3 on T cells [7] = biological target: T2, CD3 on T cells; test: flow cytofluorimetry on peripheral blood T cells
Procedure: as §1

T2 sequence (P07766 23-207): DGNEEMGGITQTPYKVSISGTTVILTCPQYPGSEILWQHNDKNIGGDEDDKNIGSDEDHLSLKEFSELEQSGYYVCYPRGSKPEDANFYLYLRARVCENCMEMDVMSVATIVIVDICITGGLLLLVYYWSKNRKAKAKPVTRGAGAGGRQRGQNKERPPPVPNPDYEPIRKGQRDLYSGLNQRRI

| Binder | Kd (CD3 on T cells [1]) | EC50 (CD3 on T cells [2]) [nM] | EC50 (read off the curve), NFAT-luciferase induction in Jurkat reporter cells with DLD1 cells (CD3 on T cells [3]) [nM] | EC50 for AGS killing in the presence of T cells, 24 hours, E:T 4 (CD3 on T cells [4]) [nM] | EC50 for killing DLD1 in the presence of T cells, 24 hours, E:T 4 (CD3 on T cells [4]) [nM] | EC50 of tumor cell cytotoxicity, DLD1-FAP cells with T cells, 24 hours, E:T 4 [5] [nM] | EC50 (CD3 on T cells [6]) [nM] | fold decrease in T cell affinity relative to the parental Fv (h10Ta-wt) (CD3 on T cells [7]) [fold] | fold decrease in T cell signaling, NFAT luciferase Jurkat reporter cells with DLD1 cells, 24 hours (CD3 on T cells [4]) [fold] |
| --- | --- | --- | --- | --- | --- | --- | --- | --- | --- |
| h10Ta-wt (bispecific antibody, also called h10Ta with the parental Fv; h10Ta (wt anti-CD3 Fv)) light: DIQMTQSPSSLSASVGDRVTITCRASQDIRNYLNWYQQKPGKAPKLLIYYTSRLESGVPSRFSGSGSGTDYTLTISSLQPEDFATYYCQQGNTLPWTFGQGTKVEIKGAPGGGTHTCPPCPAPELLGGPSVFLFPPKPKDTLMISRTPEVTCVVVDVSQEDPEVQFNWYVDGVEVHNAKTKPREEQFNSTYRVVSVLTVLHQDWLNGKEYKCKVSNKGLPSSIEKTISKAKGQPREPQVYTLPPSREEMTKNQVSLSCAVKGFYPSDIAVEWESNGQPENNYKTTPPVLDSDGSFFLVSKLTVDKSRWQQGNVFSCSVMHEALHNHYTQKSLSLSPGK heavy: EVQLLESGGGLVQPGGSLRLSCAASGFTFSSYAMSWVRQAPGKGLEWVAVIDSNGGSTYYPDTVKDRFTISRDNSKNTLYLQMNSLRAEDTAVYYCSSYTNLGAYWGQGTLVTVSAGGGGSGGGGSGGGGSDIQMTQSPSSLSASVGDRVTITCRASQDISGYLNWLQQKPGKAIKRLIYTTSTLDSGVPSRFSGSGSGTDFTLTISSLQPEDFATYYCLQYASSPFTFGGGTKVEIKPAGGGGGSEVQLVESGGGLVQPGGSLRLSCAASGYSFTGYTMNWVRQAPGKGLEWVALINPYKGVSTYNQKFKDRFTISVDKSKNTAYLQMNSLRAEDTAVYYCARSGYYGDSDWYFDVWGQGTLVTVSSGAPGGGTHTCPPCPAPELLGGPSVFLFPPKPKDTLMISRTPEVTCVVVDVSQEDPEVQFNWYVDGVEVHNAKTKPREEQFNSTYRVVSVLTVLHQDWLNGKEYKCKVSNKGLPSSIEKTISKAKGQPREPQVYTLPPSREEMTKNQVSLWCLVKGFYPSDIAVEWESNGQPENNYKTTPPVLDSDGSFFLYSKLTVDKSRWQQGNVFSCSVMHEALHNHYTQKSLSLSPGK | 50 nM and 54 nM and 75 nM | 60 | ~0.4 | 0.0014 | 0.0005 | – | – | – | – |
| hB2Ta (bispecific antibody) light: DIQMTQSPSSLSASVGDRVTITCQASQDISNYLNWYQQKPGKAPKLLIYYTSRLESGVPSRFSGSGSGTDYTLTISSLQPEDFATYYCQQGNTLPWTFGQGTKVEIKGAPGGGTHTCPPCPAPELLGGPSVFLFPPKPKDTLMISRTPEVTCVVVDVSQEDPEVQFNWYVDGVEVHNAKTKPREEQFNSTYRVVSVLTVLHQDWLNGKEYKCKVSNKGLPSSIEKTISKAKGQPREPQVYTLPPSREEMTKNQVSLSCAVKGFYPSDIAVEWESNGQPENNYKTTPPVLDSDGSFFLVSKLTVDKSRWQQGNVFSCSVMHEALHNHYTQKSLSLSPGK heavy: QVQLVQSGAEVKKPGASVKVSCKASGYSFTDYTMNWVRQAPGQGLEWMGVINPNHGISSYAQKFQGRVTMTRDTSTSTVYMELSSLRSEDTAVYYCVRRKISYDYDEGYAMDYWGQGTLVTVSSGGGGSGGGGSGGGGSDIVMTQSPDSLAVSLGERATINCKSSQNLLNSSNQKNYLAWYQQKPGQPPKLLVFFAATRESGVPDRFSGSGSGTDFTLTISSLQAEDVAVYYCQQHYSTPWTFGGGTKLEIKPAGGGGSEVQLVESGGGLVQPGGSLRLSCAASGYSFTGYTMNWVRQAPGKGLEWVALINPYKGVSTYNQKFKDRFTISVDKSKNTAYLQMNSLRAEDTAVYYCARSGYYGDSDWYFDVWGQGTLVTVSSGAPGGGTHTCPPCPAPELLGGPSVFLFPPKPKDTLMISRTPEVTCVVVDVSQEDPEVQFNWYVDGVEVHNAKTKPREEQFNSTYRVVSVLTVLHQDWLNGKEYKCKVSNKGLPSSIEKTISKAKGQPREPQVYTLPPSREEMTKNQVSLWCLVKGFYPSDIAVEWESNGQPENNYKTTPPVLDSDGSFFLYSKLTVDKSRWQQGNVFSCSVMHEALHNHYTQKSLSLSPGK | – | – | – | – | – | 0.041 | – | – | – |
| h10Ta-L4 (bispecific antibody, also called TriAx-A harboring L4) light: DIQMTQSPSSLSASVGDRVTITCQASQDISNYLNWYQQKPGKAPKLLIYYTSRLESGVPSRFSGSGSGTDYTLTISSLQPEDFATYYCQQGNTLPWTFGQGTKVEIKGAPGGGTHTCPPCPAPELLGGPSVFLFPPKPKDTLMISRTPEVTCVVVDVSQEDPEVQFNWYVDGVEVHNAKTKPREEQFNSTYRVVSVLTVLHQDWLNGKEYKCKVSNKGLPSSIEKTISKAKGQPREPQVYTLPPSREEMTKNQVSLSCAVKGFYPSDIAVEWESNGQPENNYKTTPPVLDSDGSFFLVSKLTVDKSRWQQGNVFSCSVMHEALHNHYTQKSLSLSPGK heavy: EVQLLESGGGLVQPGGSLRLSCAASGFTFSSYAMSWVRQAPGKGLEWVAVIDSNGGSTYYPDTVKDRFTISRDNSKNTLYLQMNSLRAEDTAVYYCSSYTNLGAYWGQGTLVTVSAGGGGSGGGGSGGGGSDIQMTQSPSSLSASVGDRVTITCRASQDISGYLNWLQQKPGKAIKRLIYTTSTLDSGVPSRFSGSGSGTDFTLTISSLQPEDFATYYCLQYASSPFTFGGGTKVEIKPAGGGGGSEVQLVESGGGLVQPGGSLRLSCAASGYSFTGYTMNWVRQAPGKGLEWVALINPYKGVSTYNQKFKDRFTISVDKSKNTAYLQMNSLRAEDTAVYYCARSGYYGDSDWYFDVWGQGTLVTVSSGAPGGGTHTCPPCPAPELLGGPSVFLFPPKPKDTLMISRTPEVTCVVVDVSQEDPEVQFNWYVDGVEVHNAKTKPREEQFNSTYRVVSVLTVLHQDWLNGKEYKCKVSNKGLPSSIEKTISKAKGQPREPQVYTLPPSREEMTKNQVSLWCLVKGFYPSDIAVEWESNGQPENNYKTTPPVLDSDGSFFLYSKLTVDKSRWQQGNVFSCSVMHEALHNHYTQKSLSLSPGK | 236 nM and 358 nM and 365 nM | – | ~0.8 | 0.002 | 0.0004 | – | 320 | 5 | 2 |
